Experimental data as given in the Human Domainome abundance scans (Beltran et al. 2025).
± gives the uncertainty stated by the source.

B1: COUP transcription factor 1, residues 83 to 159; numbered along this chain, P10589 (parent)
chain: HIECVVCGDKSSGKHYGQFTCEGCKSFFKRSVRRNLTYTCRANRNCPIDQHHRNQCQYCRLKKCLKVGMRREAVQRG

Variants of: B1
Experiment: abundance fitness (aPCA) (normalised: wild type 0, dead -1); higher = more abundant; growth selection in yeast, the domain comes from the species named
Settings: Homo sapiens

Variant	abundance fitness
Y58T	-0.774 ± 0.09
Y58V	-0.787 ± 0.073
K29V	0.013 ± 0.042
K29P	-0.534 ± 0.14
K29A	-0.079 ± 0.042
K29D	0.153 ± 0.08
K29W	-0.149 ± 0.054
K29E	0.103 ± 0.05
K29R	-0.181 ± 0.04
K29M	-0.055 ± 0.081
K29T	0.026 ± 0.058
Q75W	-0.119 ± 0.044
Q75Y	-0.219 ± 0.093
Q75L	-0.007 ± 0.036
R34W	-0.25 ± 0.085
R34T	-0.295 ± 0.15
R34I	0.091 ± 0.16
R34A	0.268 ± 0.066
Q57V	-0.567 ± 0.084
Q57D	0.046 ± 0.095
Q57R	-0.231 ± 0.052

Variant	abundance fitness
Q57L	-0.221 ± 0.083
Q57K	-0.341 ± 0.11
Q57G	0.07 ± 0.047
C59G	-0.789 ± 0.055
C59L	-0.934 ± 0.09
C59K	-0.871 ± 0.14
C59M	-0.809 ± 0.13
R33F	-0.51 ± 0.26
R33C	-0.698 ± 0.26
R33G	-0.029 ± 0.044
R33E	0.099 ± 0.052
F28E	-0.539 ± 0.093
F28L	-0.754 ± 0.14
F28S	-0.813 ± 0.14
F28T	-1.2 ± 0.34
G13D	0.053 ± 0.068
G13E	0.089 ± 0.065
G13P	-0.175 ± 0.067
G13C	-0.95 ± 0.29
K62G	-0.143 ± 0.035
K62L	-0.015 ± 0.038

Variant	abundance fitness
K62D	0.053 ± 0.064
K62N	0.146 ± 0.063
K62Y	-0.512 ± 0.16
Y38W	-0.658 ± 0.15
Y38R	-0.662 ± 0.11
Y38G	-0.458 ± 0.061
Y38S	-0.791 ± 0.19
F27V	-0.692 ± 0.096
F27Y	-0.61 ± 0.35
F27I	-0.86 ± 0.44
M69Y	-0.77 ± 0.16
M69H	-1.08 ± 0.26
M69I	-0.484 ± 0.099
M69Q	-0.831 ± 0.11
M69G	-0.711 ± 0.053
M69A	-0.943 ± 0.094
D49G	-0.108 ± 0.046
D49T	-0.152 ± 0.049
D49E	-0.064 ± 0.076
D49F	0.017 ± 0.062
D49K	-0.343 ± 0.087

Variant	abundance fitness
V74I	-0.292 ± 0.072
V74H	-0.104 ± 0.084
V74R	-0.449 ± 0.044
V74P	-0.151 ± 0.076
I48K	-0.661 ± 0.14
I48N	-0.151 ± 0.088
I48E	-0.23 ± 0.092
I48C	-0.25 ± 0.071
I48R	-0.461 ± 0.065
R30Q	-0.411 ± 0.26
R30K	0.389 ± 0.26
R30S	-0.157 ± 0.23
R30Y	-0.186 ± 0.47
S26A	-0.184 ± 0.1
S26R	-0.019 ± 0.074
S26H	-0.137 ± 0.19
S11N	-0.155 ± 0.18
S11C	0.182 ± 0.071
S11A	-0.184 ± 0.056
S11E	-0.314 ± 0.075
S11F	0.085 ± 0.13
